# Measurements taken from paper PMC12299905, “Pathogen Enzyme-Mediated Alkoxyamine Homolysis as a Killing Mechanism of Aspergillus fumigatus” (Journal of Fungi, 2025).
# What was measured:
# [1] = Homolysis kinetics / stability of alkoxyamines by EPR; format: physicochemical; conditions: for activation energy Ea of homolysis: from kd by Arrhenius law
# Method: Homolysis constants were measured by Electronic Paramagnetic Resonance (EPR) on a EMX Bruker spectrometer, with O2 as the alkyl radical scavenger, as previously reported. Thermic activation led to the liberation of nitroxide: (2,2,6,6-tetramethylpiperidin-1-yl)oxyl (TEMPO). The details of the kinetic experiments in aqueous or solvent phases and the values of homolysis rate constants (kd), activation energies (Ea), and half-life times (t1/2) are reported in Supplementary Information and Data (see below).
# Indeed, the activation energies of these alkoxyamines range from 121 to 140 kJ/mol with half-life times longer than 10 days (Supplementary Table S1). Moreover, the values were measured for a mixture of the two diastereoisomers. […] The solvent effect (i.e., t-BuPh) versus H2O/1-PrOH (99:1) was also investigated. […] Overall, there is no stability concern for these molecules with respect to the subsequent biological studies.
# EPR kinetic figures of homolysis rate constants ( kd), activation energies ( Ea) and half-life
# Molecule Solvent T (°C)a kd (s-1)b,c Ea (kJ·mol-1)d t1/2(37 °C) (days)
# [2] = system: Ku80 azole-susceptible strain; assay: Exposure of A. fumigatus spores to alkoxyamines, azole-susceptible strain; format: cell-based; conditions: Aspergillus fumigatus
# Method: (§1) Ku80 azole-susceptible strain and FC240 azole-resistant strain were kindly provided by Prof. J.-P. Latge and Dr E. Fréalle (Lille University Hospitals, Lille, France). The latter strain harbors a 34 bp tandem repeat mutation (TR34) in the cyp51A gene promoter combined with a substitution in codon L98H. The strains of A. fumigatus were used for spore preparation as previously described. Briefly, spores were grown from frozen stocks on Sabouraud + Chloramphenicol agar tubes (BioMérieux, Marcy l’Etoile, France) at 37 °C for 7 days. Next, conidia were collected by scraping and suspending in PBS containing 0.01% Tween 20 (Sigma-Aldrich®, St. Louis, MO, USA). Spore counting was performed using a Kova® hemacytometer, and aliquots of 10^6 spores were prepared.
# (§2) A. fumigatus spores were exposed to various concentrations of alkoxyamines (1, 10, 100, and 1000 µM), with each concentration in triplicate. Controls were grown alone (without alkoxyamine treatment) or exposed to the antifungal voriconazole under the same experimental conditions. Briefly, the reactions were performed in well plates in a total volume of 250 μL RPMI medium. At the end of the incubation time period (48 h), the optical densities (OD600 nm) of scrapped cultures were recorded in one set of the reactions using a spectrophotometer (Thermo Fisher Scientific, Illkirch, France). […] Experiments were repeated at least three times.
# [3] = system: FC240 azole-resistant strain; assay: Exposure of A. fumigatus spores to alkoxyamines, azole-resistant strain; format: cell-based; conditions: Aspergillus fumigatus
# Method: as §1, §2
# [4] = t-BuPh, mixture of two diastereoisomers
# [5] = H2O/1-PrOH 99:1, extrapolated to 37 °C
# [6] = t-BuPh/DCM 99:1, extrapolated to 37 °C
SMILES,"activation energy Ea of homolysis [1, 4]","half-life time t1/2 (37 °C) of homolysis [1, 6]",activation energy Ea of homolysis ([1]; t-BuPh/DCM 99:1),further results
CC(ON1C(C)(C)CCCC1(C)C)c1ccc(NC(=O)[C@@H]2CCCN2C(=O)CNC(=O)OCC2c3ccccc3-c3ccccc32)cc1 (stereo partly shown) [4a],33.34 kcal/mol,,,
CC(ON1C(C)(C)CCCC1(C)C)c1ccc(NC(=O)[C@@H]2CCCN2C(=O)[C@H](C)NC(=O)OCC2c3ccccc3-c3ccccc32)cc1 (stereo partly shown) [4b],33.15 kcal/mol,,,
CC(ON1C(C)(C)CCCC1(C)C)c1ccc(NC(=O)[C@@H]2CCCN2C(=O)CNC(=O)CCC(=O)O)cc1 (stereo partly shown) [VIa],,1519 days,32.15 kcal/mol,"half-life time t1/2 (37 °C) of homolysis [1, 5]: 10 days; activation energy Ea of homolysis ([1]; H2O/1-PrOH 99:1): 29.06 kcal/mol"
CC(ON1C(C)(C)CCCC1(C)C)c1ccc(NC(=O)[C@@H]2CCCN2C(=O)[C@H](C)NC(=O)CCC(=O)O)cc1 (stereo partly shown) [VIb],,3632 days,32.7 kcal/mol,"half-life time t1/2 (37 °C) of homolysis [1, 5]: 199 days; activation energy Ea of homolysis ([1]; H2O/1-PrOH 99:1): 30.9 kcal/mol"
CC(ON1C(C)(C)CCCC1(C)C)c1ccc(NC(=O)[C@@H]2CCCN2C(=O)OC(C)(C)C)cc1 (stereo partly shown) [compound 2],32.93 kcal/mol,,,"half-life time t1/2 (37 °C) of homolysis ([1]; t-BuPh, extrapolated to 37 °C): 5395 days"
CC(ON1C(C)(C)CCCC1(C)C)c1ccc(NC(=O)[C@@H]2CCCN2)cc1 (stereo partly shown) [compound 3],,2554 days,32.48 kcal/mol,
C[C@@H](c1ncncc1F)[C@](O)(Cn1cncn1)c1ccc(F)cc1F [voriconazole],,,,MIC [2]: 0.25 µg/mL; MIC [3]: 4 µg/mL
